From patent US20230002481A1 (Chugai, published 2023)
Blank lines part the entries; values can stand above or below the binder they belong to.

How the values were obtained:
[1] = target: T1, recombinant cyno C1r2s2 His/Flag tetramer (cynomolgus monkey, limits assumed); test: SPR (Biacore), antibody captured on ProA/G, antigen as analyte, 37 C, pH5.8, 1.2 mM CaCl2; pH 5.8
T1 construct: Heterotetramer of two C1r-His and two C1s-Flag chains, co-expressed in FreeStyle293-F cells; also called cyno C1r2s2s
T1 chain 1: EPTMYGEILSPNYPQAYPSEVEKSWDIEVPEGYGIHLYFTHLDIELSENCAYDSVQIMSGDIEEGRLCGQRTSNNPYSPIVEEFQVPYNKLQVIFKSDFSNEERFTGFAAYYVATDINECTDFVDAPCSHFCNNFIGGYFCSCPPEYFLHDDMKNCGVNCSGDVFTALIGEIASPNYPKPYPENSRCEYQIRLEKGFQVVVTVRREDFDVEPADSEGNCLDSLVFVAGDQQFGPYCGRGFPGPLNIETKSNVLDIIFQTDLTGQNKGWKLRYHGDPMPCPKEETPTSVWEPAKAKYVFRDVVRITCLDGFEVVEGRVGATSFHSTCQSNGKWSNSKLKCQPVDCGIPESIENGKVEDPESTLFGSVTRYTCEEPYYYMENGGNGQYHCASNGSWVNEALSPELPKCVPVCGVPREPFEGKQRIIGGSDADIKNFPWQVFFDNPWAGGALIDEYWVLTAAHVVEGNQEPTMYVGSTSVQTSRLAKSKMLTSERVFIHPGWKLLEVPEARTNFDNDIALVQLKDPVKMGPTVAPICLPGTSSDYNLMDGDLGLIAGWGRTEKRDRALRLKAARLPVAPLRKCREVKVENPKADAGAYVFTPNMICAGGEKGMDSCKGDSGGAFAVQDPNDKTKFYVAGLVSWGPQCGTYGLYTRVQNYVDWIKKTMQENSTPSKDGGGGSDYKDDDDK
T1 chain 2: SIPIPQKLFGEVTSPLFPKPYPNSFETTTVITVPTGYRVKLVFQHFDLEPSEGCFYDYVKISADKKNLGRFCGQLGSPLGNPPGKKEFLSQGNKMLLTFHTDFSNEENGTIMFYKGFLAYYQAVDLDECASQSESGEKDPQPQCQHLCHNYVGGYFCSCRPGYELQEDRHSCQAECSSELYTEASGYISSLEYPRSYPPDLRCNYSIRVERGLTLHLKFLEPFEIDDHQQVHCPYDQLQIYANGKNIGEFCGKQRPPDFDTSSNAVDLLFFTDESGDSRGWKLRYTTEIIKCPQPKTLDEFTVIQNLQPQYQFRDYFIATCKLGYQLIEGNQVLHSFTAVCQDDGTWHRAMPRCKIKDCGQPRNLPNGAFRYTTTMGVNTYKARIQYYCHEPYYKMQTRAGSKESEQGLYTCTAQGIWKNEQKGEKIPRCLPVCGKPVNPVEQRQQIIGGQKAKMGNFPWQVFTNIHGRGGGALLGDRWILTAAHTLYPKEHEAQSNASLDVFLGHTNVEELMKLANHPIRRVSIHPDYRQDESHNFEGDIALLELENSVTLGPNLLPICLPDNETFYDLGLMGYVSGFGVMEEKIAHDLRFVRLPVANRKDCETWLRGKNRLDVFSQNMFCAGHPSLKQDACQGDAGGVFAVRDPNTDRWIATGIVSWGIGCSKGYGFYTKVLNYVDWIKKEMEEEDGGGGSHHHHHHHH
Method: (§1) The kinetic parameters of anti-C1s antibodies against recombinant human C1s (as described in PCT/JP2018/042054), human C1r2s2, and cyno C1r2s2 His/Flag (also referred as cyno C1r2s2 in the Table and Figures) were assessed at pH7.4 and pH5.8, at 37 degrees C. using BIACORE (registered trademark) T200 instrument (GE Healthcare) or BIACORE 4000 (GE Healthcare). ProAG (Pierce) was immobilized onto a CM4 sensorchip using amine coupling kit (GE Healthcare) according to the recommended settings by GE Healthcare. Antibodies and analytes were diluted into the respective running buffers, ACES pH7.4 and pH5.8 (20 mM ACES, 150 mM NaCl, 1.2 mM CaCl₂, 1 mg/ml BSA, 1 mg/ml CMD, 0.05% Tween 20, 0.005 w/v % NaN₃). Each antibody was captured onto the sensor surface by ProA/G. Antibody capture levels were typically 100-200 resonance units (RU). Then, recombinant C1s was injected at concentrations of 25 and 50 nM followed by dissociation at pH7.4 and pH5.8. The surface was regenerated using 10 mM Glycine-HCl, pH1.5. Kinetic parameters at neutral pH conditions and acidic conditions were determined by fitting the sensorgrams with 1:1 binding model using BIACORE (registered trademark) T200 Evaluation software, version 2.0 (GE Healthcare) or BIACORE 4000 Evaluation software. The dissociation rate at pH5.8 (after dissociation at pH7.4, indicated as pH5.8* in TABLE 2) was determined by processing and fitting data using Scrubber 2.0 (BioLogic Software) curve fitting software. The association rate (ka), dissociation rate (kd), binding affinity (KD) at pH7.4 and pH5.8 condition, and dissociation rate (kd) at pH5.8* condition of the antibodies are listed in TABLE 2. Some kinetic parameters of COS0098pHv1 in acidic condition were not correctly calculated because of its weak binding response.
(§2) Also, to observe the cross-reactivity of anti-C1s antibodies against human C1r2s2 and cyno C1r2s2 (cyno C1r2s2 His/Flag), BIACORE (registered trademark) kinetics analysis was performed.

[2] = target: T1, recombinant cyno C1r2s2 His/Flag …; test: SPR (Biacore), antibody captured on ProA/G, antigen as analyte, 37 C, pH7.4, 1.2 mM CaCl2
Method: as §1, §2

Kd [1]: 0.894 nM
koff [1]: 0.00105 s⁻¹
kon [1]: 1.17e+06 M⁻¹ s⁻¹
B1: COS0098bb (antibody, V domains shown)
VH: QSVEESGGRLVTPGTPLTLTCTVSGFSLTKYTVSWVRQAPGKGLEWIGIINTGGSAYYATWAKGRFTFSKTSTTVDLQITSPTTEDTATYFCARGNGDTDYTNLWGPGTLVTVSS
VL: QVLTQTPSSVSEPVGGTVTINCQASENIYSALAWYQQKPGQPPKLLIYGASNLESGVPSRFKGSGSGTQFTLTISDLECADAATYYCQQYYFTSSTFGGGTKVEIK
notes: Anti-C1s rabbit antibody, parent of COS0098pHv1; the antibody was captured by ProA/G; also called anti-C1s antibody COS0098bb

Kd [2]: 2.87 nM
koff [2]: 0.00125 s⁻¹
kon [2]: 435000 M⁻¹ s⁻¹
B2: COS0098pHv1 (antibody, V domains shown)
VH: QVQLVQSGAEVKKPGSSVKVSCKASGHTFSKYTVSWIRQPPGKGLEWIGIINTGGSAYPATWAKGRVTITADESTSTAYMELSSLRSEDTAVYYCARGAGDTDYTNLWGQGTLVTVSS
VL: DIQMTQSPSSLSASVGDRVTITCQASENIYSALAWYQQKPGQPPKLLIYGASQLESGVPSRFSGSGSGTDFTLTISSLQPEDFATYYCQQYYFTSHTFGQGTKVEIK
notes: Humanized, optimized pH-dependent variant of COS0098bb
